Paper PMC2756588

T1: Lsb4, P32793
T1 sequence (P32793 402-468, looked up): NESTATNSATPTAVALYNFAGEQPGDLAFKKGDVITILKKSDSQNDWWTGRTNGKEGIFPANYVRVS

T2: Pin3, Q06449
T2 sequence (Q06449 53-122, looked up): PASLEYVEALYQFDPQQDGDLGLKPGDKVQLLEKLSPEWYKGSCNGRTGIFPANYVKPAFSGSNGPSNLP

T3: Fus1, P11710
T3 sequence (P11710 432-512, looked up): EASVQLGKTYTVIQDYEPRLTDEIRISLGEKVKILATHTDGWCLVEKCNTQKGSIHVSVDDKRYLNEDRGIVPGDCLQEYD

T4: Myo5, Q04439
T4 sequence (Q04439 1072-1160, looked up): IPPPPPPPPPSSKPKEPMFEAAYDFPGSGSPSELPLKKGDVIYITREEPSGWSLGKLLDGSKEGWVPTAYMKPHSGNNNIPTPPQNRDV

T5: Sla1-2, P32790
T5 sequence (P32790 60-140, looked up): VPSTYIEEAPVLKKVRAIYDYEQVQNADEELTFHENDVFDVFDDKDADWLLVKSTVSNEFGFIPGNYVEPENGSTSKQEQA

T6: Boi1, P38041
T6 sequence (P38041 1-86, looked up): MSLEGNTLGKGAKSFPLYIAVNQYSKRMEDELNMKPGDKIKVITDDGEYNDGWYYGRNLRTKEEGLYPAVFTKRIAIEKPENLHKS

T7: Lsb3, P43603
T7 sequence (P43603 385-451, looked up): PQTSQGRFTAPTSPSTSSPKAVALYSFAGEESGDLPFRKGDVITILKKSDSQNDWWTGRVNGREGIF

T8: Hof1, Q05080
T8 sequence (Q05080 590-669, looked up): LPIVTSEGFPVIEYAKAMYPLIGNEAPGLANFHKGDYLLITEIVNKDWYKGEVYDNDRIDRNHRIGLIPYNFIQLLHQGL

T9: Hse1, P38753
T9 sequence (P38753 208-285, looked up): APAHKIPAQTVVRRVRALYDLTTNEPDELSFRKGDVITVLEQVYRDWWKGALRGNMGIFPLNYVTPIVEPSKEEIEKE

T10: Bzz1-2, P38822
T10 sequence (P38822 568-633, looked up): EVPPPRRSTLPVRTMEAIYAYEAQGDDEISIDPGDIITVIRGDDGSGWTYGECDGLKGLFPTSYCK

T11: Lsb1, P53281
T11 sequence (P53281 45-122, looked up): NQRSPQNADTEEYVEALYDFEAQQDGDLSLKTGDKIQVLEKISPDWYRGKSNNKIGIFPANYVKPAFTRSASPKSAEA

T12: Bud14, P27637
T12 sequence (P27637 247-328, looked up): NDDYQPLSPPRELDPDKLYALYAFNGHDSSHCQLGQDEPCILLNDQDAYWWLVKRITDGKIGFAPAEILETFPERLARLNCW

T13: Cyk3, Q07533
T13 sequence (Q07533 1-83, looked up): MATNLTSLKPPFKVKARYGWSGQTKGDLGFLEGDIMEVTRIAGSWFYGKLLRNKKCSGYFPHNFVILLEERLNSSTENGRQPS

T14: Bzz1-1, P38822
T14 sequence (P38822 478-572, looked up): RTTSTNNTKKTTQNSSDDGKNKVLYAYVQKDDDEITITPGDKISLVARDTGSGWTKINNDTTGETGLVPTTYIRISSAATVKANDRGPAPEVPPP

T15: Sla1-3, P32790
T15 sequence (P32790 344-424, looked up): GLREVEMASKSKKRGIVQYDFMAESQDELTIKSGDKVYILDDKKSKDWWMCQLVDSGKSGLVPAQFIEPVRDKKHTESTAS

T16: Pex13, P80667
T16 sequence (P80667 295-386, looked up): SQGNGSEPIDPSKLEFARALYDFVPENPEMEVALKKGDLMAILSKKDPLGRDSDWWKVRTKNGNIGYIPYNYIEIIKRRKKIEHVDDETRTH

T17: Boi2, P39969
T17 sequence (P39969 32-116, looked up): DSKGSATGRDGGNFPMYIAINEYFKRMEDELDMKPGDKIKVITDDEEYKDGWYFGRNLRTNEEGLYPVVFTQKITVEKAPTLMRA

T18: Bbc1, P47068
T18 sequence (P47068 1-78, looked up): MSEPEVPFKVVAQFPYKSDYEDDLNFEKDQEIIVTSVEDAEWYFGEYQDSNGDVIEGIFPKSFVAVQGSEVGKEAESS

T19: Abp1, P15891
T19 sequence (P15891 535-592, looked up): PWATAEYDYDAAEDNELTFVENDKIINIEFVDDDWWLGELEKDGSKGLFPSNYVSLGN

T20: Nbp2, Q12163
T20 sequence (Q12163 103-180, looked up): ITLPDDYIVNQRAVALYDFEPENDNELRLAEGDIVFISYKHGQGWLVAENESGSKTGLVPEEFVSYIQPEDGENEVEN

T21: Cdc25, P04821
T21 sequence (P04821 50-136, looked up): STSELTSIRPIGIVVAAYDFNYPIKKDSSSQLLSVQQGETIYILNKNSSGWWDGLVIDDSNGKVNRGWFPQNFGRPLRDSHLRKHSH

B1: unnamed (peptide)
chain: RRRRRPHRIERPLSN
B2: unnamed (peptide)
chain: RSLRKRPTSPSISGS
B3: unnamed (peptide)
chain: QHQQRQPKRPKRYSL

Each binder was assayed against T1, Lsb4, P32793 (assay: SPOT array). Conditions: median of control spots 397.

Binder	SPOT intensity
B1	6
B2	5
B3	101

These binders were tested against Sho1, P40073 (assay: SPOT array). Conditions: median of control spots 1148.
Chain of Sho1, P40073 (P40073 287-367): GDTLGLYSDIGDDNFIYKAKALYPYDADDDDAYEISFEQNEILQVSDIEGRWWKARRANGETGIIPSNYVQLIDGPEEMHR

Binder	SPOT intensity
B1	270
B2	295
B3	115

These binders were tested against T2, Pin3, Q06449 (assay: SPOT array). Conditions: median of control spots 2171.

Binder	SPOT intensity
B1	1
B2	8
B3	2

The binders below were run against T3, Fus1, P11710 (assay: SPOT array). Conditions: median of control spots 1200.

Binder	SPOT intensity
B1	43
B2	44
B3	55

These binders were tested against GST (assay: SPOT array). Conditions: median of control spots 978.

Binder	SPOT intensity
B1	1
B2	3
B3	8

These binders were tested against T4, Myo5, Q04439 (assay: SPOT array). Conditions: median of control spots 471.

Binder	SPOT intensity
B1	1
B2	2
B3	2

The binders below were run against Myo3, P36006 (assay: SPOT array). Conditions: median of control spots 468.

Binder	SPOT intensity
B1	7
B2	9
B3	2

What follows are binders tested against T5, Sla1-2, P32790 (assay: SPOT array). Conditions: median of control spots 712.

Binder	SPOT intensity
B1	0
B2	1
B3	5

What follows are binders tested against T6, Boi1, P38041 (assay: SPOT array). Conditions: median of control spots 1162.

Binder	SPOT intensity
B1	9
B2	5
B3	13

The binders below were run against T7, Lsb3, P43603 (assay: SPOT array). Conditions: median of control spots 406.

Binder	SPOT intensity
B1	8
B2	14
B3	36

These binders were tested against T8, Hof1, Q05080 (assay: SPOT array). Conditions: median of control spots 4086.

Binder	SPOT intensity
B1	4
B2	13
B3	3

These binders were tested against T9, Hse1, P38753 (assay: SPOT array). Conditions: median of control spots 1727.

Binder	SPOT intensity
B1	16
B2	55
B3	33

What follows are binders tested against T10, Bzz1-2, P38822 (assay: SPOT array). Conditions: median of control spots 4538.

Binder	SPOT intensity
B1	5
B2	21
B3	17

Each binder was assayed against T11, Lsb1, P53281 (assay: SPOT array). Conditions: median of control spots 388.

Binder	SPOT intensity
B1	0
B2	26
B3	5

Each binder was assayed against T12, Bud14, P27637 (assay: SPOT array). Conditions: median of control spots 956.

Binder	SPOT intensity
B1	24
B2	22
B3	8

What follows are binders tested against T13, Cyk3, Q07533 (assay: SPOT array). Conditions: median of control spots 1451.

Binder	SPOT intensity
B1	5
B2	1
B3	1

The binders below were run against T14, Bzz1-1, P38822 (assay: SPOT array). Conditions: median of control spots 4446.

Binder	SPOT intensity
B1	2
B2	0
B3	0

What follows are binders tested against T15, Sla1-3, P32790 (assay: SPOT array). Conditions: median of control spots 5475.

Binder	SPOT intensity
B1	25
B2	44
B3	78

What follows are binders tested against T16, Pex13, P80667 (assay: SPOT array). Conditions: median of control spots 1341.

Binder	SPOT intensity
B1	2
B2	5
B3	6

These binders were tested against T17, Boi2, P39969 (assay: SPOT array). Conditions: median of control spots 1161.

Binder	SPOT intensity
B1	0
B2	0
B3	4

Each binder was assayed against T18, Bbc1, P47068 (assay: SPOT array). Conditions: median of control spots 796.

Binder	SPOT intensity
B1	515
B2	175
B3	211

These binders were tested against Bem1-1, P29366 (assay: SPOT array). Conditions: median of control spots 4282.
Chain of Bem1-1, P29366 (P29366 55-141): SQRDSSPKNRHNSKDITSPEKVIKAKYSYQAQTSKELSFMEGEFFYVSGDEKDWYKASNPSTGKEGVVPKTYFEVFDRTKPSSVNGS

Binder	SPOT intensity
B1	1
B2	0
B3	1

The binders below were run against Bem1-2, P29366 (assay: SPOT array). Conditions: median of control spots 4347.
Chain of Bem1-2, P29366 (P29366 139-227): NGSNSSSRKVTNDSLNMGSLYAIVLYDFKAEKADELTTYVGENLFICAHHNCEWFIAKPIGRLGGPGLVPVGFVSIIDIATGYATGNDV

Binder	SPOT intensity
B1	5
B2	5
B3	147

These binders were tested against T19, Abp1, P15891 (assay: SPOT array). Conditions: median of control spots 935.

Binder	SPOT intensity
B1	133
B2	224
B3	106

Each binder was assayed against T20, Nbp2, Q12163 (assay: SPOT array). Conditions: median of control spots 357.

Binder	SPOT intensity
B1	74
B2	198
B3	21

Each binder was assayed against Rvs167, P39743 (assay: SPOT array). Conditions: median of control spots 2707.
Chain of Rvs167, P39743 (P39743 419-482): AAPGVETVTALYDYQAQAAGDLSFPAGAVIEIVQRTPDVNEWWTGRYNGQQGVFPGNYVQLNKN

Binder	SPOT intensity
B1	4
B2	2
B3	0

The binders below were run against T21, Cdc25, P04821 (assay: SPOT array). Conditions: median of control spots 969.

Binder	SPOT intensity
B1	28
B2	52
B3	22
